We go through eight molecules from US20140294814A1 (SAMSUNG ELECTRONICS, published 2014).

The Kd is the constant that tells how readily two partners part at equilibrium. What is called koff is the rate constant with which the complex falls apart. As usually defined, the kon is the second-order rate constant of association. A lower kon goes with slower complex formation.

The target in assay [1] is T1, c-Met (NP_000236) (human, UniProt P08581 25-932, limits assumed).
T1 construct: also called antigen
T1 sequence (P08581 25-932 limits assumed): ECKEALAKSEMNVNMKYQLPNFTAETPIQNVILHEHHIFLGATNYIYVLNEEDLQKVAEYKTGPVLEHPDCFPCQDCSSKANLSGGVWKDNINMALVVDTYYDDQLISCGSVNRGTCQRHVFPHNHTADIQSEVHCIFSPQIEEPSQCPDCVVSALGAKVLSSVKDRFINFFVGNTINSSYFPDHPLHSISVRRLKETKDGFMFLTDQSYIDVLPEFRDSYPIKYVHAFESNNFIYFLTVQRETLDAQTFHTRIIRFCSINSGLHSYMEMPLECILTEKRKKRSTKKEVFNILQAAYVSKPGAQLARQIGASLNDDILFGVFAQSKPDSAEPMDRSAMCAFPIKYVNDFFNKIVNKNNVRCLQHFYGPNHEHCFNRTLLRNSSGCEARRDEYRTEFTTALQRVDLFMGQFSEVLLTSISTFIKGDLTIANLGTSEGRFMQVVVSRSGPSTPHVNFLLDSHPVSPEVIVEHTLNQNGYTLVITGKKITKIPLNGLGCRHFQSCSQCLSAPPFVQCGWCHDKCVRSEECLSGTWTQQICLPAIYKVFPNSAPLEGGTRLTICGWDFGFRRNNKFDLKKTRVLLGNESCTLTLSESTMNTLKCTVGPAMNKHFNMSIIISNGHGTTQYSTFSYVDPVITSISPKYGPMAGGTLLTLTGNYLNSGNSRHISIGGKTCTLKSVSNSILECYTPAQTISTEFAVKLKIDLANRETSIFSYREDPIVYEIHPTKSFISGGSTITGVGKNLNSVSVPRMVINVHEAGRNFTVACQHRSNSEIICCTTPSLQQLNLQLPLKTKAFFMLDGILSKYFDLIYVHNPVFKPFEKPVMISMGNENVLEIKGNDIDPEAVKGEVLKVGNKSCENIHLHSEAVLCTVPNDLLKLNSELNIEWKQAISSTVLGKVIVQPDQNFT
The experiment in a line: estimated from several ELISAs, Fab.

For assay [2], the target named is T1, c-Met (NP_000236). The experiment in a line: kinetic measurement, method and format not stated.
In the next assay the target is T2, human IgG1 Fc protein (human, UniProt P01857-1 100-330 = IgG part, limits assumed).
T2 construct: domain: Fc; Counter-screen antigen in the hybridoma ELISA; also called human Fc protein; human Fc
The experiment in a line: ELISA, plate-coated human IgG1 Fc protein, hybridoma culture supernatant. The method, then:
The hybridoma cell culture obtained in Example 1(2) was added in an amount of 50 μL to each well of the plates and incubated for 1 hour. The cells remaining unreacted were washed out with a sufficient amount of Tris-buffered saline and Tween 20 (TBST). Goat anti-mouse IgG-horseradish peroxidase (HRP) was added to the plates and incubated for 1 hour at room temperature. The plates were washed with a sufficient amount of TBST. A substrate (OPD) of the peroxidase was added thereto, allowing the substrate and the peroxidase to react. The reaction level was determined by measuring absorbance at 450 nm on an ELISA reader. Hybridoma cell lines which secrete antibodies that specifically and strongly bind to human c-Met protein but not human Fc were selected repeatedly.

In assay [3] the target is T1, c-Met (NP_000236). The experiment in a line: ratio of the KD of chAbF46 to the KD of the clone.
The target of assay [4] is T1, c-Met (NP_000236). The experiment in a line: method and reference clone not given.

B1: chimeric clone of AbF46 (Fab) (Fab, V domains shown)
VH: EVKLVESGGGLVQPGGSLRLSCATSGFTFTDYYMSWVRQPPGKALEWLGFIRNKANGYTTEYSASVKGRFTISRDNSQSILYLQMDTLRAEDSATYYCARDNWFAYWGQGTLVTVSA
VL: DILMTQSPSSLTVSAGEKVTMSCKSSQSLLASGNQNNYLAWHQQKPGRSPKMLIIWASTRVSGVPDRFIGSGSGTDFTLTINSVQAEDLAVYYCQQSYSAPLTFGAGTKLELKR
notes: also called chAbF46
Take B1: the Kd with c-Met (NP_000236) [1] is about 4 nM. Further, in the assay with c-Met (NP_000236) [2], the Kd turned out to be 2.19 nM, the koff amounted to 0.000723 s⁻¹ and the on-rate constant (kon) turned out to be 329000 M⁻¹ s⁻¹.

B2: mouse antibody AbF46 (antibody, V domains shown)
VH: EVKLVESGGGLVQPGGSLRLSCATSGFTFTDYYMSWVRQPPGKALEWLGFIRNKANGYTTEYSASVKGRFTISRDNSQSILYLQMDTLRAEDSATYYCARDNWFAYWGQGTLVTVSA
VL: DILMTQSPSSLTVSAGEKVTMSCKSSQSLLASGNQNNYLAWHQQKPGRSPKMLIIWASTRVSGVPDRFIGSGSGTDFTLTINSVQAEDLAVYYCQQSYSAPLTFGAGTKLELKR
notes: Mouse monoclonal antibody from a hybridoma; also called monoclonal antibody of hybridoma KCLRF-BP-00220
In the case of B2, the binding result in the assay with human IgG1 Fc protein was “no binding”.

B3: clone L3E (Fab, V domains shown)
VH: EVQLVESGGGLVQPGGSLRLSCAASGFTFTDYYISWVRQAPGKGLEWVGFIRNKANGYTTEYSASVKGRFTISRDDSKNSLYLQMNSLKTEDTAVYYCARDNWFAYWGQGTLVTVSS
VL: DIVMTQSPLSLPVTPGEPASISCKSSQSLLASGNQNNYLAWYLQKPGQSPQLLIYWASTRVSGVPDRFSGSGSGTDFTLKISRVEAEDVGVYYCQQSYSRPLTFGQGTKLEIKR
As for B3, the Kd with c-Met (NP_000236) [1] is about 30 nM.

B4: clone L1bA (Fab) (Fab, V domains shown)
VH: EVQLVESGGGLVQPGGSLRLSCAASGFTFTDYYISWVRQAPGKGLEWVGFIRNKANGYTTEYSASVKGRFTISRDDSKNSLYLQMNSLKTEDTAVYYCARDNWFAYWGQGTLVTVSS
VL: DIVMTQSPLSLPVTPGEPASISCKSSQSLLAWGNQNNYLAWYLQKPGQSPQLLIYWASTRVSGVPDRFSGSGSGTDFTLKISRVEAEDVGVYYCQQSYSRPLTFGQGTKLEIKR
notes: L3E with S27->W (S27E->W) in CDR-L1; Fab with human kappa constant region and CH1 of human IgG1; also called LlbA
Take B4: in the assay with c-Met (NP_000236) [1], the Kd was about 0.3 nM and the “fold improvement in binding over the starting clone L3E” value is about 100 fold. Moreover, the “WT KD/Mutant KD” value with c-Met (NP_000236) [3] turned out to be 12.8 ratio.

B5: antibody C28m (mutated C28) (Fab, V domains shown)
VH: EVQLVESGGGLVQPGGSLRLSCAASGFTFTDYYISWVRQAPGKGLEWVGFIRNKANGYTTEYSASVKGRFTISRDDSKNSLYLQMNSLKTEDTAVYYCARDNWFAYWGQGTLVTVSS
VL: DIVMTQSPLSLPVTPGEPASISCKSSQSLLAWSNQNNYLAWYLQKPGQSPQMLIIWAITRVGGVPDRFSGSGSGTDFTLKISRVEAEDVGVYYCQQSYSRPYTFGQGTKLEIKR
notes: C28 with L46M, Y49I and L96Y in VL; Described as an antibody fragment cloned into the same vector as the wild type
In the assay with c-Met (NP_000236) [2], B5 displayed a dissociation constant Kd of under 0.01 nM, a koff of under 7.4e-05 s⁻¹ and an association rate constant (kon) of 940000 M⁻¹ s⁻¹.

B6: clone 1-F3 (Fab) (Fab, V domains shown)
VH: EVQLVESGGGLVQPGGSLRLSCAASGFTFTDYYISWVRQAPGKGLEWVGFIRNKANGYTTEYSASVKGRFTISRDDSKNSLYLQMNSLKTEDTAVYYCARDNWFAYWGQGTLVTVSS
VL: DIVMTQSPLSLPVTPGEPASISCKSSQSLLAWGNQNNYAAWYLQKPGQSPQLLIYWASTRVSGVPDRFSGSGSGTDFTLKISRVEAEDVGVYYCQQSYSRPLTFGQGTKLEIKR
notes: Clone from the combinatorial library; Fab with human kappa constant region and CH1 of human IgG1
Take B6: the “WT KD/Mutant KD” value in the assay with c-Met (NP_000236) [3] worked out at 8.8 ratio. In the assay with c-Met (NP_000236) [4], the “fold enhancement of binding ability” value is about 3 fold.

B7: clone C28 (Fab) (Fab, V domains shown)
VH: EVQLVESGGGLVQPGGSLRLSCAASGFTFTDYYISWVRQAPGKGLEWVGFIRNKANGYTTEYSASVKGRFTISRDDSKNSLYLQMNSLKTEDTAVYYCARDNWFAYWGQGTLVTVSS
VL: DIVMTQSPLSLPVTPGEPASISCKSSQSLLAWSNQNNYLAWYLQKPGQSPQLLIYWAITRVGGVPDRFSGSGSGTDFTLKISRVEAEDVGVYYCQQSYSRPLTFGQGTKLEIKR
notes: as for B6
B7: the “WT KD/Mutant KD” value with c-Met (NP_000236) [3] came to 19.9 ratio. Moreover, the “fold enhancement of binding ability” value with c-Met (NP_000236) [4] is about 3 fold.

B8: clone C30 (Fab) (Fab, V domains shown)
VH: EVQLVESGGGLVQPGGSLRLSCAASGFTFTDYYISWVRQAPGKGLEWVGFIRNKANGYTTEYSASVKGRFTISRDDSKNSLYLQMNSLKTEDTAVYYCARDNWFAYWGQGTLVTVSS
VL: DIVMTQSPLSLPVTPGEPASISCKSSQSLLAWGFQNNYLAWYLQKPGQSPQLLIYWASTRVGGVPDRFSGSGSGTDFTLKISRVEAEDVGVYYCQQSYSRPLTFGQGTKLEIKR
notes: as for B6
For the molecule B8, the “WT KD/Mutant KD” value with c-Met (NP_000236) [3] worked out at 13.7 ratio. In the assay with c-Met (NP_000236) [4], the “fold enhancement of binding ability” value was about 3 fold.
